Measured values: PMC3971960 (Biochemistry, 2014)

T1: BlaI (Staphylococcus aureus, UniProt P0A042 1-126)
T1 sequence: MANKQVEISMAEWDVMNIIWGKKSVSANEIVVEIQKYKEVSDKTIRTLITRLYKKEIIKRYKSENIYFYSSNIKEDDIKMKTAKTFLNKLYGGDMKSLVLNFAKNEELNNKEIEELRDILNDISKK

T2: MecI (Staphylococcus aureus NRS70 (N315), UniProt P68261 1-123)
T2 sequence: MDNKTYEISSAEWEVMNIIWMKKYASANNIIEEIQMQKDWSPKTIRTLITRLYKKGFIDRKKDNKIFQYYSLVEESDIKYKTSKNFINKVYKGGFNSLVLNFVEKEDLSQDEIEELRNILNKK


How the values were obtained:
BlaI = target: T1, BlaI; assay: fluorescence anisotropy
MecI = target: T2, MecI; assay: fluorescence anisotropy
MALDI mass spectrometry = target: the molecule itself; assay: MALDI mass spectrometry
AUC = target: the molecule itself; assay: AUC

| Binder | Kd (BlaI) [nM] | Kd (MecI) [nM] | stoichiometry N (MALDI mass spectrometry) | Kd (AUC) [nM] | stoichiometry N (AUC) |
| --- | --- | --- | --- | --- | --- |
| mec dsDNA (mec operator) (dsDNA) DNA 1: ATATAAGACTACATTTGTAGTATATTACAAATGTAGTATTT DNA 2: AAATACTACATTTGTAATATACTACAAATGTAGTCTTATAT | 13 ± 6 | < 10 |  |  |  |
| MecI (natural protein, S. aureus NRS70 (N315), UniProt P68261 1-123, looked up) MDNKTYEISSAEWEVMNIIWMKKYASANNIIEEIQMQKDWSPKTIRTLITRLYKKGFIDRKKDNKIFQYYSLVEESDIKYKTSKNFINKVYKGGFNSLVLNFVEKEDLSQDEIEELRNILNKK |  |  | 5 | 300 ± 30 | 2 |
